Reference: paper PMC9303311

B1: 5'FAM-ssDNA57 (ssDNA)
DNA: TGGAGAATCCCGGTGCCGAGGCCGCTCAATTGGTCGTAGACAGCTCTAGCACCGCTT
B2: 5'FAM-PsDNA5 (XNA)
DNA: CGCCT
modifications: phosphorothioate at every internucleotide linkage, mixed Rp/Sp

Tests used:
SAMHD1 T592E = SAMHD1 T592E (Homo sapiens, UniProt Q9Y3Z3 1-626, T592E); experiment: fluorescence anisotropy
SAMHD1 wild-type = SAMHD1 wild-type (Homo sapiens, UniProt Q9Y3Z3 1-626); experiment: fluorescence anisotropy
SAMHD1 wild-type, sequence (Q9Y3Z3 whole entry): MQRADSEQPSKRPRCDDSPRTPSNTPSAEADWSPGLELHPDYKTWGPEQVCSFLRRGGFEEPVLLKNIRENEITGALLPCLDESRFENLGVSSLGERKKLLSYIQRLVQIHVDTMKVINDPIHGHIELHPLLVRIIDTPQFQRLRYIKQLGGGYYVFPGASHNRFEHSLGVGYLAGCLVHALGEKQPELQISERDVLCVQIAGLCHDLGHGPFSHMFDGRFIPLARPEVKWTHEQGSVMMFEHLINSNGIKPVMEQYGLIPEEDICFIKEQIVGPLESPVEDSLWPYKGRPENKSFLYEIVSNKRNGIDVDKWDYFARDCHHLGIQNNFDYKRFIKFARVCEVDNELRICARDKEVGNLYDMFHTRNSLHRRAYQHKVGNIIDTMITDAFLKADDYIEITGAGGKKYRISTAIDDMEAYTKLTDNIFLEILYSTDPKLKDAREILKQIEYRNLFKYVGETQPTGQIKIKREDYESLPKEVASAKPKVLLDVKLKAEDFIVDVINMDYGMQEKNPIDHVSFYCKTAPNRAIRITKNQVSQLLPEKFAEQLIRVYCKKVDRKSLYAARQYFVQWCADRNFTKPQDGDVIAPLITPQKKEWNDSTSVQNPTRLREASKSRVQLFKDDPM

SAMHD1 T592E, sequence (Q9Y3Z3 whole entry T592E): as the sequence (Q9Y3Z3 whole entry) above, with T592E counted along it

Binder | Kd (SAMHD1 T592E) | Kd (SAMHD1 wild-type)
B1 | 431 ± 25 nM | 
B2 | 283 ± 8 nM | 119 ± 7 nM
